# Measurements taken from the RNAGym collection of RNA variant scans (doi:10.7554/elife.90254).
# B1: OR4K15 (parent)
# chain: GUUAACGGUCAUAGGCCAUGGAAACUAGGAGCACCAUUUCGCUGCCAGUGAAGAAAUGAACAAAGAAAAUCUGGGCCAGGCAGGCAUCAAAAGAAAUAGUCUUGCGCUCAACCAGAAAGUCUGUAAUCAUUUUAAGGGUA
# Variants of: B1
# Experiment: self-cleavage, relative activity (ratio to wild type); higher = more cleavage; in vitro, sequencing; the parent is a self-cleaving ribozyme
row,Variant,self-cleavage
1,G53U A66U,1.77
2,A52G U127A,1.73
3,A52G A116G,0.91
4,A52G A116C,0.11
5,A52G C113U,0.14
6,A52G A55C,1.29
7,A52G A55U,1.51
8,A52G G80U,0.12
9,A54G A55G,0.99
10,A54G A55C,1.94
11,A52G U97A,1.33
12,A52G U97C,1.07
13,A52G U97G,1.31
14,A52U A91G,1.13
15,A54C,1.41
16,A54G,1.06
17,A52U A62G,1.23
18,G53A A117G,2.26
19,A52G U108C,0.02
20,A52G U108A,0.02
21,A52G U108G,0.03
22,A54G A98U,2.61
23,A52U A94G,1.52
24,A52G C88A,1.78

row,Variant,self-cleavage
1,A52G A60C,0.73
2,A52U A111G,0.01
3,A52G A54G,1.41
4,A54G A91G,1.18
5,A54G A91C,1.05
6,A52G A111G,0.03
7,A52G A111C,0
8,A52G A129C,0.65
9,A52C G75U,0.33
10,A52G U130A,1.08
11,A52G U130C,0.75
12,A52G U130G,0.81
13,A52G U72C,0.27
14,A52G A110G,0.17
15,G53U U100C,2.06
16,A54G A66G,1.51
17,A52G C109U,0.71
18,G53A C128A,0.93
19,A52U C101U,0.19
20,A52U A86G,1.61
21,A52G G74A,0.13
22,A52G A64U,0.82
23,A52G A64C,2.64
24,A52G A64G,0.9

row,Variant,self-cleavage
1,A52G U100G,1.16
2,A52U U132C,1.06
3,A54C U72A,0.43
4,A52G U122C,1.45
5,A54G A78U,0.26
6,A52G U103A,0.59
7,A52U A95G,1.48
8,A52G A62C,1.53
9,A52G A125G,0.37
10,A52G A125U,0.86
11,A54G A69G,1.1
12,A54G A69C,1.39
13,A52U A67G,0.87
14,A52G A89U,1.7
15,A52G A89G,1.84
16,A54G A82U,0.26
17,A54G A82G,0.61
18,A52U A82U,0.2
19,A52U A82G,1.09
20,G53A A91G,1.6
21,A52G A96G,1.64
22,A52G C128A,0.64
23,A52G A92G,1.34
24,A52G A92U,1.52

row,Variant,self-cleavage
1,A52G U139A,1.5
2,A52G U139C,2.03
3,A52G U139G,1.6
4,A52G A140U,1.15
5,A52G A140G,1.63
6,A54G A96U,2.04
7,A52G A95U,1.37
8,A52G A95G,2.12
9,A52G A126G,0.47
10,A52G U132A,0.88
11,A52G U132C,1.84
12,A54G A95G,1.81
13,A52G U120A,2.19
14,A52U U133C,1.72
15,G53U A118G,1.67
16,A52G U102C,2.18
17,A52G U102A,0.89
18,A52G U133A,2.06
19,A52U A64G,1.71
20,A52G G73A,0.11
21,G53U U122C,2
22,A52U A134U,1.41
23,G53U A114U,0.19
24,G53A U130C,1.96

row,Variant,self-cleavage
1,A52U A54G,1.25
2,A54G A64U,1.67
3,A54G A59U,0.71
4,A52G A59G,1.13
5,A52G A59U,1.28
6,A54G A56C,1.4
7,A54G A56G,1.01
8,A54G A63G,1.55
9,A54C A64G,1.36
10,A52G A91G,1.01
11,A54C A60U,1.33
12,A52C U120C,0.58
13,A52U U124C,0.48
14,A52U A140G,0.56
15,G53A A118C,0.99
16,A54G A68U,1.91
17,A52G G106C,0.02
18,A52G G106A,0.01
19,A52U A126G,1.31
20,A52G A118U,0.59
21,A54G A110C,0.2
22,A54G A110G,0.21
23,A52G A117C,0.47
24,A52G A117G,1.48

row,Variant,self-cleavage
1,A52U A110G,0.19
2,G53A A90G,0.74
3,A52G C105A,0.02
4,A52U U131A,1.49
5,A52U U122A,0.96
6,A52U A116G,1
7,A52G A78G,0.28
8,A52G A86C,0.77
9,A52G A86U,1.33
10,G53U A111G,0.04
11,A52U A63G,1.73
12,A54G A92G,1.37
13,A52U U103C,1.36
14,A52G A98G,0.8
15,A54G A86U,1.71
16,A52G G75C,0.13
17,A52U G79A,0.37
18,A52G A69U,1.25
19,A54G A90G,0.86
20,A52G C71G,0.39
21,A52G C121A,2.07
22,A52U A59G,1.48
23,A54G A94G,1.2
24,A54G A94C,1.32

row,Variant,self-cleavage
1,A52C A140G,1.87
2,A52U G83A,1.64
3,A52G U57A,1.31
4,A54G A89G,1.55
5,A54G A89U,1.61
6,A52G G104A,0.04
7,A54C A95G,2.18
8,A52G A56G,0.76
9,A54G A67U,2.17
10,A52G G123A,0.48
11,A52C U131C,1.53
12,A52G G79A,0.27
13,A52U A129G,0.81
14,A52G C112U,0.01
15,A54G A62G,0.92
16,A54G A62U,1.14
17,G53A A60G,1.53
18,G53U A69G,0.57
19,A52G G138U,2.54
20,A52G U87C,1.35
21,A52G U87A,1.23
22,A52C U108C,0.03
23,A52U G74A,0.16
